This is an account of results in patent US20100144822.

This data set concerns Argyrin A.

“purified human erythrocyte derived 20S proteasome”: the “activity of the caspase-, chymotrypsin- and trypsin-like proteasome activities (fluorogenic peptide substrates)” value was “incubation of purified human 20S proteasome with Argyrin A led to a dose dependent inhibition of the caspase, trypsin and chymotrypsin like proteasome activities”.
